Data set [1] is described as follows: melting temperature (DSF); higher = more thermostable. An outline of the steps:
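Values are melting temperatures from differential scanning fluorimetry. Candidate enzymes were expressed in E. coli C41(DE3), purified on nickel beads and freed by SUMO protease cleavage. In sealed PCR plates on a Bio-Rad CFX96, 45 μL enzyme (0 to 0.3 mg/mL) was combined with 5 μL 5X Sypro Orange. Fluorescence was recorded from 25 °C for 250 cycles, rising 0.3 °C per cycle at a ramp of 0.3 °C/s.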

Data set [2] in a line: purified protein yield per well (BCA); higher = higher soluble expression. An outline of the steps: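 Candidate enzymes were expressed in E. coli C41(DE3) in 2 mL autoinduction cultures with 100 µg/mL kanamycin, at 37 °C for 2 h and then 18 °C for 40 h. Cells were lysed, and protein was bound to Ni-charged magnetic beads and released by SUMO protease cleavage on an OT-2 robot. The read-out is purified protein yield per well, measured with the Pierce Rapid Gold BCA kit. Values below 25 ug (0.1 mg/mL) are below the detection threshold.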

The nature of data set [3]: PET hydrolysis, aromatic products released after 48 h (umol product/mg enzyme); higher = more PET depolymerization activity. An outline of the steps:
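Reactions ran in sealed plates without shaking for 48 h at 40 or 60 °C. Each held 3.5 mg amorphous PET film or crystalline PET powder, 450 μL buffer and 5 μg (50 μL) of tagless, SUMO-cleaved, nickel-purified candidate enzyme. Buffers were 50 mM NaCitrate at pH 4.5 or 5.5, 50 mM NaPhosphate at pH 6.5 or 7.5, and glycine at pH 8.5. The supernatant's aromatic product, read at 260 and 280 nm against buffer blanks, gives PET hydrolysis activity per mg enzyme.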

[4] abbreviates: substrate: aFilm, 40 °C, pH 5.5.
Setting [5] is: substrate: aFilm, 40 °C, pH 6.5.
[6] abbreviates: substrate: aFilm, 40 °C, pH 7.5.
Setting [7] is: substrate: aFilm, 60 °C, pH 5.5.
Where [8] appears, read: substrate: aFilm, 60 °C, pH 6.5.
Setting [9] is: substrate: aFilm, 60 °C, pH 7.5.
Setting [10] is: substrate: cryPow, 40 °C, pH 5.5.
[11] abbreviates: substrate: cryPow, 40 °C, pH 6.5.
[12] abbreviates: substrate: cryPow, 40 °C, pH 7.5.
Setting [13] is: substrate: cryPow, 60 °C, pH 5.5.
Setting [14] is: substrate: cryPow, 60 °C, pH 6.5.
Setting [15] is: substrate: cryPow, 60 °C, pH 7.5.
Where [16] appears, read: substrate: cryPow, 40 °C, pH 4.5.
Setting [17] is: substrate: cryPow, 60 °C, pH 4.5.
[18] abbreviates: substrate: aFilm, 40 °C, pH 4.5.
The mark [19] stands for this setting: substrate: aFilm, 60 °C, pH 4.5.

± gives the standard deviation of the averaged measurements.

“AGFERGPDPSTSTLDAARGPFAVAEERVYSWRASGFGGGDIYYPTTTSEGTFGVVAVAPGYTAGRSSMAWLASRIASHGFVVINIDTLTRSDQPASRGRQLLAALDHVTSSSGVRDRVDASRQAVVGHSMGGGGALEAASSRPALQAAVPLTPWNLTKRWSSLQVPTFIVGAENDSVASVRTHAEPFYESLPAALPKAYLELNNASHFAPNTTNSTIGRYTVAWLKRYVDDDLRYSQFLCPPPPPSSAIEEFRATC [DP087]”: the melting temperature in data set [1] was 44.2 C. Besides, the “purified protein yield per well” value in data set [2] was 208 µg. Also, the PET hydrolysis in data set [3] (setting [4]) is less than 3; in data set [3] (setting [5]) it was less than 3; in data set [3] (setting [6]) it was less than 3; in data set [3] (substrate: aFilm, 40 °C, pH 8.5) it was less than 3; in data set [3] (setting [7]) it was less than 3; in data set [3] (setting [8]) it was less than 3. Moreover, the PET hydrolysis in data set [3] (setting [9]) is less than 3; in data set [3] (substrate: aFilm, 60 °C, pH 8.5) it was less than 3; in data set [3] (setting [10]) it was less than 3; in data set [3] (setting [11]), less than 3; in data set [3] (setting [12]) it was less than 3; in data set [3] (substrate: cryPow, 40 °C, pH 8.5), less than 3. The PET hydrolysis in data set [3] (setting [13]) was less than 3; in data set [3] (setting [14]) it was less than 3; in data set [3] (setting [15]), less than 3; in data set [3] (substrate: cryPow, 60 °C, pH 8.5), less than 3.
“ADNPYQRGPDPTRTSVTAVNGPFANTSVSVPTGYGFNGGRIYYPTDTSQGTFGAIAISPGYTALFSAELAWMGPWLASHGFVVIGIETNSRNDFDTARGTQLLAALDYLTQQSPVRDRVDPNRLAVAGHSMGGGGALSAATRRSSLKAVVGIAPYSPSSNLANDRVPTMIFAGQADTVVTPSYATNLYNSLPTTTESVYLEVAGADHGFMVGRSNPVMVRTMLPFVKMFVDNDTRYSQFLCPLADSSGVVTYRSTCPLLPSTPTTPTATPTNTPTPTASPTVPPGSASQIVGTQSGRCIDVPNASHTNGTRVALYDCNRQSNQSWTYTSTKQLQVYGTMCLDAAGSGNGAAVQIYGCHSQTNQQWNVNSNGTISSVQSGRCLDVWSTANGAQVQLYDCHGQTNQQFRLVSLAR [ESM137]”: the melting temperature in data set [1] stood at 62.2 C. In data set [2], the “purified protein yield per well” value was determined as 140 µg. Further, the PET hydrolysis was 10 in data set [3] (setting [16]); 18 in data set [3] (setting [10]); 17 in data set [3] (setting [11]); 8 in data set [3] (setting [12]); less than 3 in data set [3] (setting [17]); less than 3 in data set [3] (setting [13]). For the same sequence, the PET hydrolysis in data set [3] (setting [14]) and in data set [3] (setting [15]) was less than 3 in each case.
“ADNPYERGPDPTRTSVATERGPFANTSVSVPSGHGFNGGRIYYPTDTSQGTFGAIAISPGYTALFSVELAWMGPWLASHGFVVIGIETNSTNDFDTARGTQLLAALDYLTQQSPVRDRIDPSRLAVSGHSMGGGGALSAAMRRSSLKAVVGITPFSPSSNLASNQVPTMVISGQADTVVTPSYALDLYNSLPASTESVYLEVAGGDHGFMVGRSNPVLIRTMLPFLKMFVDNDTRYSQFLCPLMDNSGVVTYRSTCPLLPTPPTTPPPTGDPTSPPPSTDPTTPPPSGSTGQIVGTQSNRCIDVPNSSRNNGTRVQLYDCHGQANQTWTYNSTTKQLRVYGDMCLDAAGSGNGAAVQIYNCHGQTNQQWNLNSNGTISGVQSNRCLDVWSTNNGAQIQLYDCHGQTNQQFRIRS [ESM173]” had a melting temperature in data set [1] of 61.6 C. The “purified protein yield per well” value in data set [2] was determined as 199 µg. For the same sequence, the PET hydrolysis in data set [3] (setting [18]), in data set [3] (setting [4]), in data set [3] (setting [5]), in data set [3] (setting [6]), in data set [3] (setting [19]) and in data set [3] (setting [7]) was less than 3 in each case. The PET hydrolysis is less than 3 in data set [3] (setting [8]); less than 3 in data set [3] (setting [9]); 3.5 ± 0.71 in data set [3] (setting [16]); 11.5 ± 0.71 in data set [3] (setting [10]); 20.5 ± 0.71 in data set [3] (setting [11]); 11 in data set [3] (setting [12]). Further, the PET hydrolysis in data set [3] (setting [17]), in data set [3] (setting [13]), in data set [3] (setting [14]) and in data set [3] (setting [15]) was less than 3 throughout.
Turning to “SPSPGTPGGDNPYQRGPDPTVASVAAQYGPFATAQITVPPGNGFNGGFIYYPTDTSHTYGAVAIVPGYTALFADEEAWMGPRLASFGFVVIGVETNSRTDYDTARGTQLLAALDYLTNSSAVRDRVDRNRLSVIGHSMGGGGSLYAATQRPSLKAAIGLAPFKPSGNLASDTVPTMIIGGINDTTVTPSYLDGLYPTLPAATPGAYLQLANADHLYFTRPNDIELRSQIEWLKIFVDNDTRYTPFLCPSVKDTTGIVRSSVKCSTVPGGGSTPSSSRILGTQSGRCVDVPGATHNNGTRVQLYDCNGQANQQWTYTSSKQLTVYGTVCLDAAGSGNGSAVQIYSCNGQANQQWNVNANGTITGVQSGRCLDVWGTGNGQQIQIYDCNGQANQKFSLN [ESM136]”, the melting temperature in data set [1] was 55.6 C. In addition, the “purified protein yield per well” value in data set [2] turned out to be 61.4 µg. Further, the PET hydrolysis is 5 in data set [3] (setting [16]); 18 in data set [3] (setting [10]); 13 in data set [3] (setting [11]); less than 3 in data set [3] (setting [12]); less than 3 in data set [3] (setting [17]); less than 3 in data set [3] (setting [13]). Also, the PET hydrolysis in data set [3] (setting [14]) and in data set [3] (setting [15]) was less than 3 throughout.
For the sequence “ANPYERGPNPTQALLEARSGPFSVSSERAWRLGSDGFGGGTIYYPRENNTYGAVAISPGYTGTQASVAWLGERIASHGFVVITIDTNTTLDQPDSRADQLEAALDHMVDGASSTVRSRIDRNRLAVMGHSMGGGGTLRLASQRPDLKAAIPLTPWHLNKSWSNVQVPTLIIGADLDTIAPVLTHAEPFYNSIPTSTRKAYLELDGATHFAPNITNSTIGMYSVAWLKRFVDEDTRYTQFLCPGPRTGLFSDVEEYRSTCPF [TEP014]”, in data set [1], the melting temperature was found to be 54.1 C. Moreover, the “purified protein yield per well” value in data set [2] was 267 µg. The PET hydrolysis in data set [3] (setting [18]), in data set [3] (setting [4]), in data set [3] (setting [5]), in data set [3] (setting [6]), in data set [3] (setting [19]) and in data set [3] (setting [7]) was less than 3 in each case. Besides, the PET hydrolysis is less than 3 in data set [3] (setting [8]); less than 3 in data set [3] (setting [9]); less than 3 in data set [3] (setting [16]); less than 3 in data set [3] (setting [10]); 1.5 ± 2.1 in data set [3] (setting [11]); 4.5 ± 0.71 in data set [3] (setting [12]). Also, the PET hydrolysis in data set [3] (setting [17]), in data set [3] (setting [13]), in data set [3] (setting [14]) and in data set [3] (setting [15]) was less than 3 in each case.

The record behind these values is the supplement of paper PMC12455559.
